Results: patent US20040161448

Tests used:
[1] = molecular target: T1, Soybean Kunitz Trypsin Inhibitor, P01070
T1 chain: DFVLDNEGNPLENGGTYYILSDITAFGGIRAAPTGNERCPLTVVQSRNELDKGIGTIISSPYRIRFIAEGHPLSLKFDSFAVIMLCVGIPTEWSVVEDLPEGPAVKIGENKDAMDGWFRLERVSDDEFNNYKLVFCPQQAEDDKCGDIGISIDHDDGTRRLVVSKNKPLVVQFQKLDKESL

[2] = molecular target: T2, soybean Bowman-Birk Inhibitor, P01055
T2 chain: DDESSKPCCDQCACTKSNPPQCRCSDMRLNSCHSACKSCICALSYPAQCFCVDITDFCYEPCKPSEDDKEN

[3] = molecular target: soybean agglutinin (SBA), P05046
soybean agglutinin (SBA), P05046, sequence (P05046 33-285): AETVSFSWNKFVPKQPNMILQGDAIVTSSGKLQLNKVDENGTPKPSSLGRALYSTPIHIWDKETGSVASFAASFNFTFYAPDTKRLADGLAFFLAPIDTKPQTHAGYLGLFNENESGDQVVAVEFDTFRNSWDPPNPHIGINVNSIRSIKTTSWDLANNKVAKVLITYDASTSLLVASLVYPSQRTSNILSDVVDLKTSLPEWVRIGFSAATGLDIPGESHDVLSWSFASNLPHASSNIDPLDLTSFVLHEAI

B1: protease derived from Nocardiopsis sp. NRRL 18262 (protein)
chain: ADIIGGLAYTMGGRCSVGFAATNAAGQPGFVTAGHCGRVGTQVTIGNGRGVFEQSVFPGNDAAFVRGTSNFTLTNLVSRYNTGGYATVAGHNQAPIGSSVCRSGSTTGWHCGTIQARGQSVSYPEGTVTNMTRTTVCAEPGDSGGSYISGTQAQGVTSGGSGNCRTGGTTFYQEVTPMVNSWGVRLRT
% of anti-nutritional factor degraded [1]: 100%
% of anti-nutritional factor degraded [2]: 25%
% of anti-nutritional factor degraded [3]: 75%
